This is an account of results in the RNAGym collection of RNA variant scans (doi:10.7554/elife.80360).

Sequences and labels used below:
B1: Hairpin Ribozyme (parent)
chain: GUCCUCUUUCACGUGCGCGUGAAAGAGAGAAGUGAACCAGAGAAACACACGUUGUGGUAUAUUACCUGGUA

This series covers variants of B1. Put plainly: self-cleavage, relative activity (ratio to wild type); higher = more cleavage; co-transcriptional.
Turning to G40U U58A, the self-cleavage amounted to 0.155. For G17C G57C the value was 0.206; for C3U C66A, 0.0858. For C37A C38U the value was 0.0834; for U8A A41C, 0.82.

Take U5A G15A: the self-cleavage was determined as 0.388.

On to A28U G29A, for which the self-cleavage was found to be 0.0881.

Turning to U33C G69U, the self-cleavage worked out at 0.0808. With G17A, the self-cleavage stood at 1.01. As for G27C A28G, the self-cleavage was found to be 0.128. For C18U U62G the value was 0.0807; for U52A A71U, 0.915; for A31U U63G, 0.0484.

For the variant G21C U67C, the self-cleavage amounted to 0.18. For G29A G69C the value was 0.14. In the case of G29A G69U it was 0.113; in that of C48U C50U, 0.0683. For A28U U53A the value was 0.845.

Take A35U G57C: the self-cleavage was 0.116. In the case of U53C G57A it was 0.326. For U14G A45G the value was 0.0744; for C37A A49U, 0.0951. In the case of C50G G56A it was 0.226. Consider G25U U62G, for which the self-cleavage is 0.237. In the case of A23U A64U it was 0.178; in that of G40A A41U, 0.608; in that of G1C C3G, 0.246. For A41U A61C the value was 0.39; for U8G A71U, 0.588.

For the variant A41U C66U, the self-cleavage stood at 0.46.

Turning to U9G A22C, the self-cleavage amounted to 0.677.

C38U U53A: the self-cleavage is 0.731. In the case of A36C A71U it was 0.654; in that of U14C U70G, 0.679. In the case of A30U A39G it was 0.0918. In the case of A28G G34A it was 1.25; in that of C50A G56C, 0.104; in that of C3U G56U, 0.0961. Regarding C6A G56A, the self-cleavage was 0.117. For U9G C16A the value was 0.668. For U7C A39G the value was 0.263; for C3A A23C, 0.484; for G42A U67G, 0.125.

Turning to U8C A23G, the self-cleavage was found to be 0.709.

Take G42C A44U: the self-cleavage was 0.174. For U7G G56U the value was 0.0768; for U7A G51A, 0.977. Regarding A61U A71U, the self-cleavage stood at 0.171. In the case of G1A U8A it was 0.232; in that of G17A C38G, 0.198. In the case of C16A G69U it was 0.334; in that of A47G U63A, 0.211.

Regarding A22C U33C, the self-cleavage stood at 0.155. In the case of A39U A64G it was 0.116.

Consider A28G U62G, for which the self-cleavage came out at 0.183.

Regarding G25C C38A, the self-cleavage was found to be 0.0929. In the case of A43C G56A it was 0.13. For G19A A64U the value was 0.198; for C4A G21C, 0.175. For C4U G27U the value was 0.118. For the variant A22C U70C, the self-cleavage is 0.892. G56A G68U: the self-cleavage stood at 0.146.

Consider A43U C48A, for which the self-cleavage came to 0.206. For G1U A43U the value was 0.142; for G25C A41G, 0.298. In the case of A44G A64C it was 0.12. For G42A A47G, the self-cleavage came out at 0.162. In the case of G19A U53C it was 0.854. For G51A U58A the value was 0.674; for C16G A64U, 0.172. For A47U G68U, the self-cleavage came to 0.224.

With A49G G51A, the self-cleavage stood at 0.651. In the case of U8C A24U it was 0.369. Regarding A11C A71G, the self-cleavage was 0.902.

As for U33C G56A, the self-cleavage was 0.0589. In the case of G27A A41G it was 0.261; in that of U8A A59G, 0.215; in that of U9C A59G, 0.0975.

For U2A G25A, the self-cleavage was 0.259. In the case of C16G G51U, the self-cleavage was found to be 0.803. Take G40U U67C: the self-cleavage was determined as 0.0949. In the case of G34C A45G it was 0.368. In the case of G56C A64C it was 0.104; in that of G21U G29C, 0.224. For U2G A31U the value was 0; for U7G G40C, 0.207. For A36U U53C, the self-cleavage was determined as 0.593. For A39U A45U the value was 0.142; for C12U A43U, 0.22; for U9A U62C, 0.249.

G1C C66G: the self-cleavage worked out at 0.0728.

U9A G68U: the self-cleavage was determined as 0.159. For the variant U67G A71C, the self-cleavage came out at 0.37. Take A31C G69A: the self-cleavage was 0.0915.

Take A22C U63G: the self-cleavage came to 0.109. In the case of G21A G68A it was 0.151. With C3A U52C, the self-cleavage amounted to 0.619. In the case of G42U A45C, the self-cleavage was 0.227. For A39C C48G the value was 0.256; for A22C G25A, 0.247; for U2G C65A, 0.402. As to A11C A31G, the self-cleavage turned out to be 0.437. For the variant A36U A47C, the self-cleavage was 0.146. For C6A U58C the value was 0.697; for U14G G42C, 0.101; for U14A C38A, 0.171.

On to A35C G54U, for which the self-cleavage was found to be 0.56. For U2C G40U the value was 0.103. In the case of U2G A59U it was 0.0332; in that of C38G G51A, 0.271; in that of C6A C48U, 0.158. For U9C A11C the value was 0.592; for U9G C38G, 0.175; for U5C G29A, 0.106. In the case of G21U A61C, the self-cleavage was 0.237.

Consider C16G C18U, for which the self-cleavage was 0.823. For A47G C48A the value was 0.122; for C12G G56A, 0.14; for C50A G68A, 0.143. In the case of G19U A30C it was 0.128.

For the variant G13A G40U, the self-cleavage was 0.129. In the case of U9C G15C it was 0.977; in that of G40U C66U, 0.223. With U5G A30G, the self-cleavage was determined as 0.144. In the case of C10G A31G it was 0.576.

With A24C A43G, the self-cleavage is 0.157. In the case of C3G C38U it was 0.133; in that of C10U A41G, 0.765. As to A22C G42A, the self-cleavage is 0.146.

Take U2A U33G: the self-cleavage worked out at 0.151. For C46U C50G the value was 0.0749; for G54A A64U, 0.114; for C16U U60A, 1.01. Consider A44C U60G, for which the self-cleavage is 0.0874. In the case of A43C U67C it was 0.112; in that of U58G C66U, 0.403; in that of A23U U62G, 0.171. For C16G A36U the value was 0.553; for C10A U70G, 0.767. For G25U A49G the value was 0.217; for C50G A64G, 0.164. On to U7C A41G, for which the self-cleavage turned out to be 0.845. For C18U A26U the value was 0.59; for G21U G68U, 0.32. In the case of A28G A49G it was 0.637; in that of G21U U60C, 1.08. Turning to A31U A35U, the self-cleavage was determined as 0.162. In the case of U7A U58G it was 0.775; in that of G1U G19U, 0.134.

For the variant U20G G34A, the self-cleavage came out at 1.19.

As to A44G A71G, the self-cleavage was 0.117. In the case of G27A A30U, the self-cleavage worked out at 0.0812.

As for G40U G42A, the self-cleavage worked out at 0.202. For the variant U2A A49G, the self-cleavage turned out to be 0.188.

On to G32C A64G, for which the self-cleavage was found to be 0.0936. In the case of A31U G68A it was 0.157. For G32C G68C the value was 0.112; for C18U C65U, 0.373; for G32C U53A, 0.185. For C37A G40A the value was 0.174. Regarding G29U A59U, the self-cleavage turned out to be 0.104.

A26G A71U: the self-cleavage came out at 0.823. Consider A47C C48A, for which the self-cleavage was 0.164. In the case of C38G U52C it was 0.224. For G21U A59U the value was 0.147; for A39G G68U, 0.107. For G40U G56C the value was 0.147.
